This is an account of results in US20090214495A1 (published 2009).

In the assay the target is T1, VEGFR-3 expressed in primary human osteoblasts (human, UniProt P35916 25-1363).
T1 construct: whole, on cells; Endogenous receptor of the cells; also called vascular endothelial growth factor receptor-3
The experiment in a line: receptor auto-phosphorylation in primary human osteoblasts treated with 25 ng/ml VEGF-D. The procedure: Moreover osteoblasts were treated with VEGF-D and the whole cell lisates were immunoprecipitated with an antibody recognizing VEGFR-3 C-terminus (Santa Cruz Biotechnology) and immunoblotted with anti-phosphotyrosine antibodies (Santa Cruz Biotechnology).
Cells were stimulated for 30 min with 25 ng/ml VEGF-D at 37° C., washed with ice-cold PBS containing 0.1 mM Na₃VO₄, and lysed in 1 ml of lysis buffer (50 mM Hepes, pH 7.4, 150 mM NaCl, 1% Triton-X 100, 1.5 mM MgCl₂, 1 mM EGTA, 10 mM NaH₂PO₄, 100 mM NaF, 10 mM DTT, 1 mM Na₃VO₄, protease inhibitors, Sigma Chemical). Cells lysates were incubated on ice for 10 min, centrifuged at 10,000×g for 15 min, and the supernatants were incubated with anti-VEGFR-3 antibodies.

T1 sequence (P35916 25-1363): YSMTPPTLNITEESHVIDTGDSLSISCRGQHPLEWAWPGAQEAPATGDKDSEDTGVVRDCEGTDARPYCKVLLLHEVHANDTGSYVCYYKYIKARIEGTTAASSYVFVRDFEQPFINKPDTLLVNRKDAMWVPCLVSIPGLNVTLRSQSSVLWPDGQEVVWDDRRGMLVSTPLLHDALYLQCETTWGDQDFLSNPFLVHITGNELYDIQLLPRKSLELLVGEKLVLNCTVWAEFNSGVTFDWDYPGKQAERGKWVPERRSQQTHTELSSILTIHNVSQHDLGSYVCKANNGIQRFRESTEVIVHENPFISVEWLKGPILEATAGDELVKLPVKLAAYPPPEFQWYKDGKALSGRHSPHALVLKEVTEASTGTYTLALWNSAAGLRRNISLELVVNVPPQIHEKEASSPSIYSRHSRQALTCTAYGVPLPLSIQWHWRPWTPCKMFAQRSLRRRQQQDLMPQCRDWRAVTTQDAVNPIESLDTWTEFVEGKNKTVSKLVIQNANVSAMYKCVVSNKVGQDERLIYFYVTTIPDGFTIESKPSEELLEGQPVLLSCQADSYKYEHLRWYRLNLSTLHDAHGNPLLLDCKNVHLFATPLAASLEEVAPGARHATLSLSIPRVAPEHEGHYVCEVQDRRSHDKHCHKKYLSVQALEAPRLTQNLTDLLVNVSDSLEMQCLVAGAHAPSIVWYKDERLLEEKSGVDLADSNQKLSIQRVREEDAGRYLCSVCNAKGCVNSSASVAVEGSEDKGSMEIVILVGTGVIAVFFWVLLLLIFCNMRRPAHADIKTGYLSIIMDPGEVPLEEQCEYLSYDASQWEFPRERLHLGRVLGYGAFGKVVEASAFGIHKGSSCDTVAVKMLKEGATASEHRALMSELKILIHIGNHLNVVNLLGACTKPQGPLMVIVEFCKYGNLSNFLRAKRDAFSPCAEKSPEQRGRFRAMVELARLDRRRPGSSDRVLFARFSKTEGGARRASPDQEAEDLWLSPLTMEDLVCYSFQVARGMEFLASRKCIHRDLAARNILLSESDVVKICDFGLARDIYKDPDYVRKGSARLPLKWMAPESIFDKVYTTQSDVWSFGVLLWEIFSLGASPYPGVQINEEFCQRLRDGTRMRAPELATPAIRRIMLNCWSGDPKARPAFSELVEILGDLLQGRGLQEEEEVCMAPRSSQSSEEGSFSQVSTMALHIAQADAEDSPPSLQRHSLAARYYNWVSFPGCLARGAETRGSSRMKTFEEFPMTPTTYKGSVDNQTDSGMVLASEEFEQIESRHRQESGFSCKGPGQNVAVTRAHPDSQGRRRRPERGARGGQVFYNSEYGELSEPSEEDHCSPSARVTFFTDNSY

B1: recombinant human VEGF-D fragment (amino acids 90 to 203), non covalent dimer, expressed in E. coli (ligand, UniProt O43915 90-203, looked up)
chain: AATFYDIETLKVIDEEWQRTQCSPRETCVEVASELGKSTNTFFKPPCVNVFRCGGCCNEESLICMNTSTSYISKQLFEISVPLTSVPELVPVKVANHTGCKCLPTAPRHPYSII
notes: range 90-203; this protein was used for the osteoblast experiments; also called recombinant VEGF-D; VEGF-D fragment comprising aa 93-203; not shown: tag from vector pET-22b used for Ni2+ IMAC / His-TRAP purification
For the molecule B1, the binding result is “binds”.
